Target: the molecule itself
Experiment: cryo-EM structure

B1: F plasmid TraT protein complex (TraT-TS) (natural protein)
chain: CGAMSTAIKKRNLEVKTQMSETIWLEPASERTVFLQIKNTSDKDMSGLQGKIADAVKAKGYQVVTSPDKAYYWIQANVLKADKMDLRESQGWLNRGYEGAAVGAALGAGITGYNSNSAGATLGVGLAAGLVGMAADAMVEDVNYTMITDVQIAERTKATVTTDNVAALRQGTSGAKIQTSTETGNQHKYQTRVVSNANKVNLKFEEAKPVLEDQLAKSIANIL
modifications: lipid anchor on the N-terminal cysteine (density not resolved)
notes: also called TraTF; TraT exclusion protein complex; copies: 10
stoichiometry N: 10

— article PMC12658005 (Communications Biology, 2025)
